# Results from US20150203577A1 (Chugai, published 2015).
# Numbering of substitutions follows the chain as printed. Numbers in names are those of the source.
# T1: mouse FcγRIII (mouse, UniProt P08508 31-215)
# T1 construct: Extracellular domain with C-terminal His tag, made in FreeStyle 293 cells; also called mFcγRIII; mFcgRIII
# T1 chain: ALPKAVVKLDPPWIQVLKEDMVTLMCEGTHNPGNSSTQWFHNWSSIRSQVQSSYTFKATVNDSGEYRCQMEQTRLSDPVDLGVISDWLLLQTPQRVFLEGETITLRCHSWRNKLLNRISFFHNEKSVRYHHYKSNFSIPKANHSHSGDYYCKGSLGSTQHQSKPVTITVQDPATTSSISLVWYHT
# T2: mouse FcγRII (mouse, UniProt P08101 30-210)
# T2 construct: Extracellular domain with C-terminal His tag, made in FreeStyle 293 cells; also called mFcγRII; mFcgRII
# T2 sequence: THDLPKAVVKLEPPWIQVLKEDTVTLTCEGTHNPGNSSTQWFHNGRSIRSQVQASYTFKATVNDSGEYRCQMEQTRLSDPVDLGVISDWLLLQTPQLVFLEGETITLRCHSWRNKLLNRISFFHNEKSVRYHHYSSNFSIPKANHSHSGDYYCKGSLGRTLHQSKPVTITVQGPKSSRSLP
# T3: mouse FcγRIII extracellular domain, C-terminal His tag (mouse, UniProt P08508 31-215)
# T3 construct: Whole entry named; also called mFcγRIII; mFcgRIII
# T3 chain: T1 chain
# T4: mouse FcγRII extracellular domain, C-terminal His tag (mouse, UniProt P08101 30-210)
# T4 construct: Whole entry named; also called mFcγRII; mFcgRII
# T4 sequence: T2 sequence
# B1: H237-MB861/MRAL-k0 (antibody, mouse IgG1, kappa)
# heavy: QVQLQESGPGLVKPSETLSLTCAVSGHSISHDHAWSWVRQPPGEGLEWIGFISYSGITNYNPSLQGRVTISRDNSKNTLYLQMNSLRAEDTAVYYCARSLARTTAMDYWGEGTLVTVSSAKTTPPSVYPLAPGSAAQTNSMVTLGCLVKGYFPEPVTVTWNSGSLSSGVHTFPAVLQSDLYTLSSSVTVPSSTWPSETVTCNVAHPASSTKVDKKIVPRDCGCKPCICEPNEVELVFIFPPKPKDVLTITLTPKVTCVVVDISDDDPEVQFSWFVDDVEVHTAQTQPREEQFNSTFRSVSELPIMHQDWLNGKEFKCRVDSDGFPAPIEKTISKTKGRPKAPQVYTIPPPKEQMAKDKVSLTCMITDFFPEDITVEWQWNGQPAENYKNTQPIMDTDGSYFVYSKLNVQKSNWEAGNTFTCSVLHEGLHNHHTEKSLSHSPGK
# light: not shown
# notes: copies: 2 + 2
# B2: H237-MB864/MRAL-k0 (antibody, mouse IgG1, kappa)
# heavy: B1 heavy with D320N, K330R
# light: not shown
# notes: '8239L' in r313c2 read as S239L; copies: 2 + 2
# B3: H237-MB855/MRAL-k0 (antibody, mouse IgG1, kappa)
# heavy: B1 heavy with D264K, Q291L, D320N, K330R
# light: not shown
# notes: copies: 2 + 2
# B4: H237-MB865/MRAL-k0 (antibody, mouse IgG1, kappa)
# heavy: B1 heavy with Q291L, D320N
# light: not shown
# notes: copies: 2 + 2
# B5: H237-MB093/MRAL-k0 (antibody, mouse IgG1, kappa)
# heavy: B1 heavy with E229T, P230V, N231P, L235S, D264K, D320N, D322A, G323A
# light: not shown
# notes: copies: 2 + 2
# B6: H237-MB208/MRAL-k0 (antibody, mouse IgG1, kappa)
# heavy: B1 heavy with E229T, P230V, N231P, E234S, L235S, S263M, D264K, D320N, D322A, G323A
# light: not shown
# notes: copies: 2 + 2
# B7: H237-MB146/MRAL-k0 (antibody, mouse IgG1, kappa)
# heavy: B1 heavy with E229T, P230V, N231P, E234S, L235S, F237D, D264K, D320N, D322A, G323A
# light: not shown
# notes: copies: 2 + 2
# B8: H237-MB258/MRAL-k0 (antibody, mouse IgG1, kappa)
# heavy: B1 heavy with E229T, P230V, N231P, E234S, L235S, D264K, S294H, D320N, D322A, G323A
# light: not shown
# notes: copies: 2 + 2
# B9: H237-MB147/MRAL-k0 (antibody, mouse IgG1, kappa)
# heavy: B1 heavy with E229T, P230V, N231P, E234S, L235S, F237E, D264K, D320N, D322A, G323A
# light: not shown
# notes: copies: 2 + 2
# B10: H237-MB075/MRAL-k0 (antibody, mouse IgG1, kappa)
# heavy: B1 heavy with E229T, P230V, N231P, V233E, E234S, L235S, D264K, D320N, D322A, G323A
# light: not shown
# notes: copies: 2 + 2
# B11: H237-MB092/MRAL-k0 (antibody, mouse IgG1, kappa)
# heavy: B1 heavy with E229T, P230V, N231P, E234D, L235S, D264K, D320N, D322A, G323A
# light: not shown
# notes: copies: 2 + 2
# B12: H237-MB159/MRAL-k0 (antibody, mouse IgG1, kappa)
# heavy: B1 heavy with E229T, P230V, N231P, E234S, L235S, F237T, D264K, D320N, D322A, G323A
# light: not shown
# notes: copies: 2 + 2
# B13: H237-MB112/MRAL-k0 (antibody, mouse IgG1, kappa)
# heavy: B1 heavy with E229T, P230V, N231P, E234S, L235F, D264K, D320N, D322A, G323A
# light: not shown
# notes: copies: 2 + 2
# B14: H237-MB125/MRAL-k0 (antibody, mouse IgG1, kappa)
# heavy: B1 heavy with E229T, P230V, N231P, E234S, L235W, D264K, D320N, D322A, G323A
# light: not shown
# notes: copies: 2 + 2
# B15: H237-MB723/MRAL-k0 (antibody, mouse IgG1, kappa)
# heavy: B1 heavy with P230D, N231Y, V233E, L235D, D264K, D320N, D322A, G323A
# light: not shown
# notes: copies: 2 + 2
# B16: H237-MB727/MRAL-k0 (antibody, mouse IgG1, kappa)
# heavy: B1 heavy with N231A, V233E, L235D, D264K, D320N, D322A, G323A
# light: not shown
# notes: copies: 2 + 2
# B17: H237-MB725/MRAL-k0 (antibody, mouse IgG1, kappa)
# heavy: B1 heavy with P230T, N231Y, V233E, L235D, D264K, D320N, D322A, G323A
# light: not shown
# notes: copies: 2 + 2
# B18: H237-MB730/MRAL-k0 (antibody, mouse IgG1, kappa)
# heavy: B1 heavy with E229Q, V233E, L235D, D264K, D320N, D322A, G323A
# light: not shown
# notes: copies: 2 + 2
# B19: H237-MB731/MRAL-k0 (antibody, mouse IgG1, kappa)
# heavy: B1 heavy with N231A, V233E, D264K, D320N, D322A, G323A
# light: not shown
# notes: copies: 2 + 2
# B20: H237-MB722/MRAL-k0 (antibody, mouse IgG1, kappa)
# heavy: B1 heavy with P230A, N231Y, V233E, L235D, D264K, D320N, D322A, G323A
# light: not shown
# notes: copies: 2 + 2
# B21: H237-MB724/MRAL-k0 (antibody, mouse IgG1, kappa)
# heavy: B1 heavy with P230N, N231Y, V233E, L235D, D264K, D320N, D322A, G323A
# light: not shown
# notes: copies: 2 + 2
# B22: H237-MB726/MRAL-k0 (antibody, mouse IgG1, kappa)
# heavy: B1 heavy with P230V, N231Y, V233E, L235D, D264K, D320N, D322A, G323A
# light: not shown
# notes: copies: 2 + 2
# B23: H237-MB732/MRAL-k0 (antibody, mouse IgG1, kappa)
# heavy: B1 heavy with V233E, D264K, D320N, D322A, G323A
# light: not shown
# notes: copies: 2 + 2
# B24: H237-MB729/MRAL-k0 (antibody, mouse IgG1, kappa)
# heavy: B1 heavy with V233E, L235D, D264K, D320N, D322A, G323A
# light: not shown
# notes: copies: 2 + 2
# Molecular target: T1, mouse FcγRIII
# Assay: SPR (Biacore), KD of H237-mIgG1/MRAL-k0 / KD of variant
# Procedure: (§1) Each altered antibody was analyzed for its interaction with each Fcγ receptor prepared above using Biacore T100 (GE Healthcare Japan Corp.), Biacore T200 (GE Healthcare Japan Corp.), Biacore A100, or Biacore 4000. The running buffer used was HBS-EP+ (GE Healthcare Japan Corp.). The assay temperature was set to 25° C. The sensor chips used were chips prepared by immobilizing Protein L (ACTIGEN or BioVision) onto Series S Sensor Chip CM5 (GE Healthcare Japan Corp.) or Series S Sensor Chip CM4 (GE Healthcare Japan Corp.) by the amine coupling method.
# (§2) In order to calculate the KD value of each altered antibody for FcγR, kinetic analysis was conducted according to the following method: first, the antibody of interest was captured onto any of these chips and allowed to interact with mFcγR diluted with a running buffer. For the obtained sensorgram, the assay results were globally fit into the 1:1 Langmuir binding model using Biacore Evaluation Software to calculate an association rate constant ka (L/mol/s) and a dissociation rate constant kd (1/s). From these values, the dissociation constant KD (mol/L) was calculated.
row,relative mFcγRIII-binding activity (mIgG1 = 1) [fold],Binder
1,2.4,B1
2,3.6,B2
3,1.1,B3
4,3.3,B4

# Molecular target: T2, mouse FcγRII
# Assay: as above
# Procedure: as §1, §2
row,relative mFcγRII-binding activity (mIgG1 = 1) [fold],Binder
1,76.8,B1
2,110,B2
3,36.2,B3
4,83.8,B4

# Molecular target: T3, mouse FcγRIII extracellular domain, …
# Assay: SPR (Biacore T200); KD of H237-mIgG1/MRAL-k0 / KD of variant
row,relative mFcγRIII-binding activity (mIgG1 = 1) [fold],Binder
1,0.61,B5
2,0.26,B6
3,0.21,B7
4,0.32,B8
5,0.36,B9
6,0.07,B10
7,0.05,B11
8,0.28,B12
9,0.27,B13
10,0.48,B14

# Molecular target: T4, mouse FcγRII extracellular domain, …
# Assay: as above
row,relative mFcγRII-binding activity (mIgG1 = 1) [fold],Binder
1,2.48,B5
2,0.4,B6
3,0.85,B7
4,0.37,B8
5,0.95,B9
6,0.12,B10
7,0.16,B11
8,0.37,B12
9,0.47,B13
10,0.81,B14

# Molecular target: T3, mouse FcγRIII extracellular domain, …
# Assay: as above
# Remark: another data set of the same source
# From the text: (§3) The antibody H chain variable region used was the variable region H237 (SEQ ID NO: 1) of the H chain VH3-IgG1 of the anti-IL-6 receptor antibody Fv4-IgG1 described in WO2009/125825. The antibody L chain commonly used was the L chain MRAL-k0 (SEQ ID NO: 2) of the anti-IL-6 receptor antibody tocilizumab. The aforementioned 11 variants were used as templates to introduce the alteration. These variants were expressed and purified by the method of Reference Example 1 and evaluated for their binding to mFcγRII and mFcγRIII by the method of Reference Example 2 using Biacore T200.
# as §1, §2
row,relative mFcγRIII-binding activity (mIgG1 = 1) [fold],Binder
1,0.72,B15
2,0.66,B16
3,1.39,B17
4,0.43,B18
5,0.03,B19
6,1.35,B20
7,1.19,B21
8,2.08,B22
9,0.03,B23
10,0.53,B24

# Molecular target: T4, mouse FcγRII extracellular domain, …
# Assay: as above
# Remark: another data set of the same source
# From the text: as §3, §1, §2
row,relative mFcγRII-binding activity (mIgG1 = 1) [fold],Binder
1,14.1,B15
2,11.7,B16
3,24.3,B17
4,7.24,B18
5,7.13,B19
6,33.3,B20
7,20.8,B21
8,35.7,B22
9,0.84,B23
10,10.4,B24

# Molecular target: T1, mouse FcγRIII
# Assay: SPR (Biacore), antibody captured on Protein L
row,Kd [nM],Binder
1,117,B1
2,77.6,B2
3,248,B3
4,84.4,B4

# Molecular target: T2, mouse FcγRII
# Assay: SPR (Biacore), antibody captured on Protein L
row,Kd [nM],Binder
1,2.74,B1
2,1.9,B2
3,5.81,B3
4,2.51,B4
